In patent US20220228157A1, “GENE EDITING IN DIVERSE BACTERIA” (priority 2019, published 2022):

Assays:
[1] = tested on: 90 bp oligos pre-coated with SSB; assay: Oligonucleotide annealing and quenching in vitro; assay type: biochemical; settings: two 90 bp oligos pre-coated with SSB
Excerpt: It was first whether two 90 bp oligos could anneal if they were pre-coated with SSB. SSBs was purified from E. coli (gram-negative), where most recombineering work has been performed, and L. lactis (gram-positive), a lactic acid bacterium phylogenetically distantly related to E. coli. […] It was next tested capacity of a phage RecT protein to overcome this SSB-mediated inhibition of annealing. Thus, Redβ, which is not broadly portable, but mediates efficient oligonucleotide annealing in E. coli, was purified. […] These preliminary results gave us an indication that while bacterial SSBs inhibit oligonucleotide annealing in vitro, RecTs overcome the inhibitory effect in an SSB-specific manner.
Fluorescent (tolC-r.null.mut-3′FAM) and quenching (tolC-f.null.mut-5′IBFQ) oligos were ordered from Integrated DNA Technologies. Unless otherwise indicated, 50 nM of each oligo was incubated in 25 mM TRIS-HCl pH 7.4 with 1.0 μM Ec_SSB or Ll_SSB at 30° C. for 30 minutes. 100 μl of each oligo mixture were then combined into a 96-well clear-bottom black assay plate (Costar), incubated a further 60 minutes at 30° C., and annealing was tracked on a Synergy H4 microplate reader (BioTek) with fluorescence excitation set to 495 nm and emission set to 520 nm. After 60 minutes, 20 μl of a solution with or without 25 μM Redβ and containing 100 mM MgCl2 was added to achieve a final reaction concentration of 2.5 μM Redβ and 10 mM MgCl2. The annealing was then tracked over 10 hours in a the Synergy H4 microplate reader with the setting indicated above.

[2] = target: L. lactis single-stranded binding protein (LlSSB) (L. lactis) (UniProt Q9CDM9); assay: cell-based or functional assay
[3] = target: PaSSB (Pseudomonas aeruginosa single-stranded binding protein) (Pseudomonas aeruginosa) (UniProt P40947); assay: cell-based or functional assay; settings: scale: fold improved over the RecT protein alone
[4] = tested on: Agrobacterium tumefaciens; assay: SSAP candidate enrichment; assay type: cell-based
Protocol: (§1) The editing efficiency of SSAP candidates was also tested in Agrobacterium tumefaciens and in Staphylococcus aureus using the methods described above.

L. rhamnosus = assay type: cell-based
Protocol: Finally, the model for RecT was used to establish recombineering in L. rhamnosus, a well-studied probiotic used to treat a variety of illnesses including diarrhea and bacterial vaginosis. Although the L. rhamnosus SSB and L. lactis SSB only have 47% identity, they share identical SSB C-terminal tail 7 amino acids. It was determined whether LrpRecT (which functions in L. lactis) is portable to L. rhamnosus, while the other RecT proteins would not be functional.

E. coli = assay: Allelic recombination frequency, selective vs non-selective plates; assay type: cell-based, Escherichia coli; settings: RecT alone
Protocol: (§2) Four variants known to enable high genome editing efficiency were selected (Redβ and PapRecT in E. coli, LrpRecT in L. lactis, and MspRecT in M. smegmatis), and tested codon optimized versions of all four in both E. coli (gram-negative), and L. lactis (gram-positive). Genome editing efficiency was measured by introducing oligos encoding known antibiotic resistance mutations, and compared the antibiotic resistant cell counts to the total number of viable cells in the population (FIGS. 17E-17F). […] In L. lactis, LrpRecT was the only functional homolog, and improved oligo incorporation 7,700-fold, while the three other RecT variants were nearly non-functional, improving oligo incorporation less than 7-fold (FIG. 17H). No RecT protein functioned well both in E. coli and L. lactis.
A single colony of E. coli was grown overnight to saturation. In the morning 30 μL of dense culture was inoculated into 3 mL of fresh media and grown for 1 hour. To induce gene expression of the pARC8 vector for recombineering experiments, L-arabinose was added to a final concentration of 0.2% (w/v) and the cells were grown an additional hour. 1 mL of cells were pelleted at 4° C. by centrifugation at 12,000×g for 2.5 minutes and washed twice with 1 mL of ice-cold dH2O. Cells were resuspended in 50 μL ice-cold dH2O containing DNA and transferred to a pre-chilled 0.1 cm electroporation cuvette.
(§3) Electrocompetent cells were electroporated with 90-mer oligos at: 1 uM for E. coli, 50 μg for L. lactis, and 10 uM for C. crescentus. 70-mer oligos were used at 1 μg for M. smegmatis. All oligos were obtained from IDT and can be found under “Oligonucleotides for genome editing” in materials and methods. For dsDNA experiments L. lactis was electroporated with 1.5 μg purified linear dsDNA. Cells were electroporated using a Bio-Rad gene pulser set to 25 μF, 200 S2, and 1.8 kV for E. coli, 2.0 kV for L. lactis, and 1.5 kV for C. crescentus and to 1000Ω and 2.5 kV for M. smegmatis. Immediately after electroporation, cells were recovered in fresh media for 3 hours for E. coli, 1 hour for L. lactis, overnight for M. smegmatis and overnight for C. crescentus. L. lactis recovery media was supplemented with MgCl2 and CaCl2) at a concentration of 20 mM and 2 mM, respectively. E. coli recovery media was supplemented with carbenicillin. M. smegmatis recovery media was supplemented with hygromycin. C. crescentus recovery media was supplemented with 0.3% xylose and kanamycin. After recovery, the cells were serial diluted and plated on non-selective vs. selective agar plates to obtain approximately 50-500 CFU/plate. Colonies were counted using a custom script in Fiji, and allelic recombination frequency was calculated by dividing the number of colonies on selective plates, with the number of colonies on non-selective plates.

Staphylococcus aureus = assay: SSAP candidate enrichment; assay type: cell-based
Protocol: as §1

L. lactis = assay: Allelic recombination frequency, selective vs non-selective plates; assay type: cell-based, Lactococcus lactis; settings: RecT alone
Protocol: as §2
A single colony of L. lactis was grown overnight to saturation. 500 μL of dense culture was inoculated into 5 mL of fresh media, supplemented with 500 mM sucrose and 2.5% (w/v) glycine, and grown for 3 hours. To induce gene expression of the pJP005 vector for recombineering experiments, the cells were grown for an additional 30 min after adding 1 ng/mL freshly diluted nisin, unless stated otherwise. For the optimized condition (FIG. 20B), 10 ng/mL nisin was used. Cells were pelleted at 4° C. by centrifugation at 5,000×g for 5 minutes and washed twice with 2 mL of ice-cold electroporation buffer (500 mM sucrose containing 10% (w/v) glycerol) by centrifugation at 13,200×g for 2.5 minutes. Cells were resuspended in 80 μL ice-cold electroporation buffer containing DNA and transferred to a pre-chilled 0.1 cm electroporation cuvette.
as §3

## EcSSB: single-stranded binding protein from E. coli [reference compound]
[1]
  Effect of SSB on oligonucleotide annealing: completely inhibited oligonucleotide annealing

## MspRecT
[2]
  genome editing efficiency in L. lactis (fold lower than the cognate pair): 33

## PapRecT
[3]
  editing efficiency in L. lactis, pair against the RecT protein alone: 1170
[2]
  genome editing efficiency in L. lactis (fold less than the cognate pair): 135

B1: PF071: SSAP candidate (protein)
chain: MALTPGLVTLNHAKIMSNESTDKLDLPQAPVPKKTLYEIVMSEDVKTHITQFVEGMMTPERCISIFWNCCQKTPLLQQCAPITLISSLKNLLLMRCEPDGIHGYLVPFWVNDKRTGNSILTCAPVPSARGLMRMARSNGVTNLNIGIVREGEPFSWRLDDGKFTMGHIPGWGDNEDPIRGFYCTWTDKDSYLHGERMSLKAVEEIKGRSKSKNKKGEIVGPWVTDFGQMGLKTVIKRASKQWDLPLVIQAAMQAADDQEFEGNMRNVTPEKTDGPAEGETPWNNAPAPEAFQNDQPEALPEPKPEGQDDLIPGLKMPAPKETATVNMEDY
modifications: Akkermansia sp KLE1798
notes: SSAP candidate
[4]
  Editing efficiency (enrichment) relative to other SSAP candidates: increase in editing efficiency

B2: PF074: SSAP candidate (protein, listed as Rhizobium loti)
chain: MMNAITTYTHSPRQLALIQKTVAKDCNTDEFNLFVEVARAKGLDPFLGQIIPMIFSKGDSNKRKMTIIISRDGQRVIAQRCGDYRPASKPPSYEFDAELKSETNPQGIVSATVYLWKQDAKTAAWFEVAGQSYWDEFAPISYPYDAYKMVDTGETWEDSGKPKKKRVLRDGATPQLDDSGNWCRMPRLMIAKCAEMQALRAGWPEQFTGLYDEAEMDRAKVLEMAASEIVAHEQEENRLRLVAGNDAITMSWGDGWALENVPAGEFMDRCLAFIRESDHQTVVKWNSANRAGLQLFWAKHPGDALELKKAIEKASRAPVEIDHIADAARREIAQHPVSAG
[4]
  Editing efficiency (enrichment) relative to other SSAP candidates: increase in editing efficiency

B3: MspRecT: RecT variant known to enable high genome editing efficiency in M. smegmatis (protein)
chain: MAENAVTKQDSPKAPETISQVLQVLVPQLARAVPKGMDPDRIARIVQTEIRKSRNAKAAGIAKQSLDDCTQESFAGALLTSAALGLEPGVNGECYLVPYRDTRRGVVECQLIIGYQGIVKLFWQHPRASRIDAQWVGANDEFHYTMGLNPTLKHVKAKGDRGNPVYFYAIVEVTGAEPLWDVFTADEIRELRRGKVGSSGDIKDPQRWMERKTALKQVLKLAPKTTRLDAAIRADDRPGTDLSQSQALALPSTVKPTADYIDGEIAEPHEVDTPPKSSRAQRAQRATAPAPDVQMANPDQLKRLGEIQKAEKYNDADWFKFLADSAGVKATRAADLTFDEAKAVIDMFDGPNA
L. rhamnosus
  Toxicity in L. rhamnosus: toxic
E. coli
  Improvement of oligo incorporation: 290 fold

B4: PF076: SSAP candidate (protein)
chain: MTGPELAAAAKQTAQQAGSATVKKFFEANRGTLEALLPRHFDSERMLKLALGALRTTPKLANASLSSLLGSVVTCAQLGLEPNTPLGHAYLLPFDKREKQNGQWVTVETQVQVIIGYKGMLDLARRSGQIVSIAAHEVCQNDEFVFAYGLNEELVHRPAMKDRGPVIGFYAVAKLTGGGYSFEFMSVDEVNHIRDKAAEKNRAKRDAAGNPIITGPWADNYVEMGRKTVLRRLFKYLPISIESLAFASAVDGQAIREPAPLEQVAFESSEPAEEPTSYDQQDEDLRALEQSQPARVPPVQVEQPAEAWQPSAEEAAELERQQAAEAAADQQRASAPRGRGQRSMSLE
modifications: Methyloversatilis universalis (strain ATCC BAA-1314 / JCM 13912 /FAM5)
notes: SSAP candidate
[4]
  Editing efficiency (enrichment) relative to other SSAP candidates: increase in editing efficiency

B5: SR063: SSAP candidate (protein)
chain: MHLIHQSGEVKMQLSPETNEILPALFNARNKFAKAKKDAKNNHLKNSYATLDAMMAAVSPALTDNDIMILQSMLDTSTETTFHLETMLIHKSGQWAKFFMMMPIAKRDPQGVGSAMTYARRYSLAAALGISQSDDDAQLAVKSVKDWKKELDACEDIESLKDVWANAYRQTDTASKSIIQDHYNALKAKFEIGKARGIRPAQPEQKKQVEATSAKPVQSQSITNFE
modifications: Bacteriophage T1
notes: SSAP candidate
Staphylococcus aureus
  Editing efficiency (enrichment) relative to other SSAP candidates: increase in editing efficiency

B6: N003: SSAP candidate (protein, listed as Escherichia coli)
chain: MTKQPPIAKADLQKTQGNRAPAAVKNSDVISFINQPSMKEQLAAALPRHMTAERMIRIATTEIRKVPALGNCDTMSFVSAIVQCSQLGLEPGSALGHAYLLPFGNKNEKSGKKNVQLIIGYRGMIDLARRSGQIASLSARVVREGDEFSFEFGLDEKLIHRPGENEDAPVTHVYAVARLKDGGTQFEVMTRKQIELVRSLSKAGNNGPWVTHWEEMAKKTAIRRLFKYLPVSIEIQRAVSMDEKEPLTIDPADSSVLTGEYSVIDNSEE
[4]
  Editing efficiency (enrichment) relative to other SSAP candidates: increase in editing efficiency

B7: L1SSB: single-stranded binding protein from L. lactis (protein)
chain: MINNVVLVGRITRDPELRYTPQNQAVATFSLAVNRQFKNANGEREADFINCVIWRQQAENLANWAKKGALIGVTGRIQTRNYENQQGQRVYVTEVVADSFQMLESRSARDGMGGGASAGSYSAPSQSTNNTPRPQTNNNSATPNFGRDADPFGSSPMEISDDDLPF
[1]
  Effect of SSB on oligonucleotide annealing: completely inhibited oligonucleotide annealing

B8: LrpRecT: RecT variant known to enable high genome editing efficiency in L. lactis (protein)
chain: MANQVAQQQKPTKLTDLVLDRVKQMQDTQDLSLPKNYNASNALNAAFLELQKVQDRNHRPALEVCSHDSIVKSLLDMTLQGLSPAKDQCYFIVYGNELQMQRSYFGTVAAVKRLDGVKKVRAEVVHEKDDFEIGANEDMELVVKRFVPKFENQDNQIIGAFAMIKTDEGTDFTVMTKKEIDQSWAQTRQKNNKVQQNFSQEMAKRTVLNRAAKMFINTSDDSDLLTGAINDTTSNEYDDERRDVTPVEDEKQSTDKLLEGFQKSQEAKAKWVSNDGNSNEGKETSEEVADGQTELFSEGTIKPADEADS
L. rhamnosus; L. rhamnosus
  Oligonucleotide incorporation: three orders of magnitude above the background level
E. coli
  Improvement of oligo incorporation: 5.6 fold
L. lactis
  Improvement of oligo incorporation: 7,700 fold
